According to patent publication US12110325B2, “TM4SF5-targeting humanized antibody and use thereof” (KOREA RESEARCH INSTITUTE OF BIOSCIENCE AND BIOTECHNOLOGY, priority 2022, dated 2024):

B1: Ab27-hz9: humanized monoclonal antibody of Ab27; VH SEQ ID NO: 7, VL SEQ ID NO: 8; IGHV1-2 and IGKV3-20 frameworks (antibody, V domains shown)
VH: QVQLVQSGAEVKKPGASVKVSCKASGYTFTDYEMHWVRQAPGQGLEWMGAIDPETGGTAYNQKFKGRVTMTADKSISTAYMELSRLRSDDTAVYYCARPYLGYWGQGTLVTVSS
VL: EIVLTQSPGTLSLSPGERATLSCRSSQSLVHSNGNTYLHWYQQKPGQAPRLLIYKVSNRFSGIPDRFSGSGSGTDFTLTISRLEPEDFAVYYCFQGSHIPLTFGQGTKVEIK
modifications: VH; VL
notes: humanized monoclonal antibody of Ab27; IGHV1-2 and IGKV3-20 frameworks

Columns and labels:
SNU449T7 cells [1] = assay: Combination treatment in SNU449T7 xenograft mouse model; type: in vivo; settings: for inhibited tumor growth relative to the control: Ab27 270, sorafenib 1,200, doxorubicin 20 μg/mouse/dose i.p. twice per week, 6 times in total, alone or combined
Description: For combination treatment, SNU449T7 (1×10^6) cells were subcutaneously injected into the mice. When volumes reached about 100 mm^3, the tumor-bearing mice were randomized into control and treatment groups (n=6 per group). Ab27 (270 μg/mouse), sorafenib (1,200 μg/mouse), or doxorubicin (20 μg/mouse) was intraperitoneally (i.p.) injected twice per week (6 times in total). For the combination treatment group, Ab27 and sorafenib or doxorubicin were intraperitoneally (i.p.) injected at 6-hour intervals. Sorafenib was dissolved in DMSO/Cremophor EL/PBS (1:1:8).
(§1) Body weight and tumor volume were measured before injection of the antibody or drug. Tumor volumes were calculated using the formula width^2×length/2). Tumor masses were lysed as described in the literature for immunoblot analysis (J Clin Invest, 2008. 118 (4): pp. 1354-66) or tumor masses were fixed in 10% formalin and embedded in paraffin.
SNU449T7 (1×10^6) cells were mixed with Matrigel and subcutaneously injected into the back, and then Ab27 (270 μg/mouse/dose); sorafenib (1,200 μg/mouse/dose); doxorubicin (20 μg/mouse/dose); a combination of Ab27 (270 μg/mouse/dose) and sorafenib (1,200 μg/mouse/dose) or a combination of doxorubicin (20 μg/mouse/dose); or saline (control) were intraperitoneally injected twice per week (6 times in total) into nude mice (n=6 per group) bearing SNU449T7 xenografts.

[2] = test system: sorafenib-resistant SNU449T7 cells; assay: Sorafenib-resistant SNU449T7 cell xenograft model; type: in vivo, mouse
Description: SNU449T7 cells were treated with sorafenib (1 μM to 10 μM) for 2 weeks, and the surviving cells (sorafenib-resistant SNU449T7; 1×10^6 cells) were mixed with Matrigel on ice and then injected subcutaneously into the backs of the mice. After 11 days, when tumor volumes reached about 100 mm^3, the tumor-bearing mice were randomized into control and treatment groups (n=7 per group). Ab27 (250 μg/mouse) or sorafenib (400 μg/mouse) was intraperitoneally (i.p.) injected at 2- or 3-day intervals for 2 or 3 weeks (8 times in total).
as §1
The antitumor activity of Ab27 was evaluated in a sorafenib-resistant SNU449T7 cell xenograft model. TM4SF5-overexpressing SNU449T7 cells were treated with sorafenib (1 μM to 10 μM; 3 culture medium changes per week) for 3 weeks, and the surviving sorafenib-resistant cells (1×10^6) were mixed with Matrigel and then subcutaneously injected into the flanks of the nude mice. Ab27 (250 μg/mouse) or sorafenib (400 μg/mouse) was injected at 2- or 3-day intervals (8 times in total).

SNU-398 cells = assay: SNU-398 liver cancer xenograft (endogenous TM4SF5); type: in vivo; settings: Ab27 300, cetuximab 300 or sorafenib 600 μg/mouse/dose
Description: as §1
(§2) Formalin-fixed and paraffin-embedded 6-μm-thick tissue sections from xenograft tumors were processed for immunohistochemistry analysis as per the standard protocol. Sections were stained with anti-Ki67 antibody (SP6; Abcam) using the peroxidase technique. The proliferative index (%) was determined by calculating the number of Ki67^+ cells relative to the total number of cells, which consisted of at least 1,000 cells per field. Five randomly selected fields from tumor sections per mouse were analyzed using ImageJ software.

TM4SF5 [3] = target: T1, TM4SF5 (Homo sapiens, UniProt O14894); assay: Flow cytometry of SNU449Cp and SNU449Tp cells; type: cell-based
T1 construct: expressed in transfected cells; SNU449Cp (TM4SF5-low control)
T1 sequence (O14894 1-197): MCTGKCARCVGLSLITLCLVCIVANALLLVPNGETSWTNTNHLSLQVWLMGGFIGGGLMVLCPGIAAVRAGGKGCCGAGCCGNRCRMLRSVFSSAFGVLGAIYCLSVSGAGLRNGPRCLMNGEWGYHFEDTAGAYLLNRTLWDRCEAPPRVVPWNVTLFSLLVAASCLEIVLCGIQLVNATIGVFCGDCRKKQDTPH
Description: To analyze antibody binding to TM4SF5, flow cytometry was performed using SNU449Cp, SNU449Tp, HEK293E, and CT26 cells. HCT-116, SNU-398, HT-29, C8161, and SNU-638 cells that had been transiently transfected with either a TM4SF5-specific siRNA or a negative control siRNA were also analyzed. Cells (2×10^5) were incubated with Ab27 or Ab27-hz9 at 0.03 μg to 0.3 μg at 4° C. for 45 minutes in 100 μL PBS containing 1% BSA. The cells were washed twice with 1% BSA/PBS, followed by a 30-minute incubation with fluorescein isothiocyanate (FITC)-conjugated anti-human IgG (Fc-specific; Pierce, Rockford, Ill., USA). Viable propidium iodide (PI)^− cells were analyzed for antibody binding using FACSCalibur (BD Immunocytometry System, San Jose, Calif., USA). To generate hemagglutinin (HA)-tagged mouse TM4SF5-expression vector, mouse TM4SF5 cDNA (Accession No. NM_029360.3) was subcloned into pCMV-HA-N vector (Clonetech, Mountain View, Calif.). PC3 cells transiently transfected with HA-tagged mouse TM4SF5-expression vector were incubated with Ab27 and anti-HA, and then analyzed by flow cytometry.

TM4SF5 [4] = target: T1, TM4SF5; assay: Immunocytochemistry of SNU449Cp and SNU449Tp cells; type: cell-based; settings: SNU449Tp versus SNU449Cp; Ab27-hz9 with a stronger level
Description: SNU-449Cp, SNU-449Tp, and HepG2 and HT-29 cells that had been transiently transfected with TM4SF5-specific siRNA were plated on coverslips and incubated for 48 hours. The cells were then fixed for 20 minutes in methanol and permeabilized with acetone for 1 minute. After blocking in 1% normal horse serum, the cells were incubated with Ab27 or Ab27-hz9 ([…]), followed by a corresponding secondary antibody conjugated to FITC. The cells were counterstained with 4,6-diamidino-2-phenylindole (DAPI; Sigma) to visualize nuclei. Immunofluorescent images were acquired under a confocal microscope (LSM 510 META, Carl Zeiss, Jena, Germany).

TM4SF5 [5] = target: T1, TM4SF5; assay: Internalization analysis of SNU449Tp cells by flow cytometry; type: cell-based; settings: Ab27 0.3 μg/mL, Ab27-hz9 0.2 μg/mL
Description: Cell-surface binding and subsequent internalization of Ab27 and Ab27-hz9 were analyzed using flow cytometry. Briefly, cells were incubated with Ab27 or Ab27-hz9 at 4° C. for 45 minutes, washed to remove unbound antibodies, and then either warmed to 37° C. to allow internalization or maintained at 4° C. Cells were transferred to ice-cold buffer to stop the occurrence of internalization and stained with FITC-conjugated anti-human IgG. PI^− cells were analyzed by flow cytometry. The relative levels of Ab27 or Ab27-hz9 bound to the cell surface were calculated as the shift in the fluorescence signal of the antibody occupancy relative to that detected at the beginning of the internalization period.
For the internalization analysis of SNU449Tp cells with Ab27 and Ab27-hz9, Ab27 (0.3 μg/mL) and Ab27-hz9 (0.2 μg/mL) were used to maintain a similar extent of initial antibody binding to TM4SF5.

SNU449T7 cells [6] = assay: SNU449T7 liver cancer xenograft, Ab27-hz9 versus Ab27 and cetuximab; type: in vivo, mouse
Description: SNU449T7 (1×10^7) cells were subcutaneously injected into the flanks of mice. When volumes reached about 100 mm^3, the tumor-bearing mice were randomized into control and treatment groups (n=6 per group). […] Normal human IgG was injected as a negative control.
as §1, §2
The antitumor efficacy of Ab27-hz9 was evaluated in the SNU449T7 xenograft model. SNU449T7 cells (3×10^6) were subcutaneously injected into the flanks of mice.

[7] = test system: SNU449Tp cell-derived tumors; assay: In vivo tumor targeting, DyLight 755-labeled antibody, SNU449T7 xenograft; design: species or system mouse; settings: DyLight 755 label, 96 hours after injection; control IgG mostly in the liver
Description: (§3) Ab27, Ab27-hz9, and normal human IgG were conjugated with DyLight 755 and purified using a DyLight 755 Antibody Labeling Kit (Thermo Scientific) according to the manufacturer's instructions. When the size of the tumor formed by SNU449T7 or SNU-398 cell reached about 100 mm^3, 70 μg of dye-labeled antibody was injected into the tail vein of nude mice. The distribution profiles of the antibody were quantified by in vivo fluorescence using IVIS imaging system at 0, 24, 48, 72, and 96 hours after antibody injection. The tumor was removed at 96 hours after injection to determine the distribution of the DyLight755-labeled antibody in tumor tissues.
In order to validate the tumor-targeting ability of anti-TM4SF5 antibodies, the distributions of Ab27 and Ab27-hz9 after injection into SNU449Tp xenograft model were determined. SNU449T7 cells were subcutaneously injected into the flanks of the nude mice so as to prepare mice bearing tumors. Ab27, Ab27-hz9, and control human IgG were labeled with a fluorescent dye (DyLight 755) and […] injected into nude mice bearing SNU449Tp cell-derived tumors. After 96 hours, the distribution of the dye-labeled antibody was quantified by measuring the total photon flux of the fluorescence.

[8] = test system: endogenous TM4SF5-expressing tumors; assay: In vivo tumor targeting, DyLight 755-labeled antibody, SNU-398 xenograft; design: species or system mouse; settings: DyLight 755 label, tail vein, 96 hours; control IgG mostly in the liver
Description: as §3
Additionally, in vivo tumor targeting of Ab27 and Ab27-hz9 were examined using a SNU-398 xenograft mouse model. To confirm in vivo tumor targeting of Ab27 and Ab27-hz9 in endogenous TM4SF5-expressing liver cancer xenografts, SNU-398 cells were subcutaneously injected into the flanks of the nude mice so as to prepare mice bearing tumors. Ab27, Ab27-hz9, and control human IgG were labeled with DyLight 755 were injected into the tail veil of tumor-bearing mice, and fluorescence was measured after 96 hours.

Molecule | inhibited tumor growth relative to the control (SNU449T7 cells [1]) [%] | immunoblot of xenograft tumor tissues: phosphorylation of FAK, c-Src, p27Kip1, STAT3 and expression of BMI1 ([2]; Ab27 250 μg/mouse or sorafenib 400 μg/mouse) | tumor growth (in words) ([2]; sorafenib 400 μg/mouse/dose, 8 times in total) | Ki67 proliferation index of tumor sections (SNU-398 cells) | inhibited tumor growth (tumor volume) (SNU-398 cells; 6 times in total, normal human IgG control) [%] | phosphorylation of STAT3 in tumor lysates (SNU449T7 cells [1]; sorafenib 1,200 μg/mouse/dose) | binding to SNU449Tp (high-TM4SF5) versus SNU449Cp (TM4SF5-low) cells (TM4SF5 [3]) | immunofluorescence staining of membrane edges (TM4SF5 [4]) | residual level of cell surface-bound antibody (TM4SF5 [5]) | level of proliferative Ki67+ cells in tumor sections versus control mice (SNU449T7 cells [6]; 300 μg/mouse/dose) | inhibited tumor growth (tumor volume) (SNU449T7 cells [6]; 300 μg/mouse/dose i.p. 3 or 4 times per week, 12 times in total, normal human IgG control) | body weight (SNU449T7 cells [6]; 300 μg/mouse/dose, 12 times in total) | distribution of dye-labeled antibody (total photon flux) [7] | distribution of dye-labeled antibody (fluorescence) [8]
COc1cccc2c1C(=O)c1c(O)c3c(c(O)c1C2=O)C[C@@](O)(C(=O)CO)C[C@@H]3O[C@H]1C[C@H](N)[C@H](O)[C@H](C)O1 [doxorubicin] | 26 |  |  |  |  |  |  |  |  |  |  |  |  | 
CNC(=O)c1cc(Oc2ccc(NC(=O)Nc3ccc(Cl)c(C(F)(F)F)c3)cc2)ccn1 [sorafenib] | 42 | relatively moderately decreased the phosphorylation of FAK, c-Src, p27^KiP1, and STAT3 | did not remarkably decrease tumor growth | significantly decreased | 51 | abolished the phosphorylation of STAT3 |  |  |  |  |  |  |  | 
B1 |  |  |  |  |  |  | bound more efficiently to SNU449Tp cells than to SNU449Cp cells | stained the membrane edges of SNU449Tp cells, but not those of SNU449Cp cells | significantly reduced | significantly lower | about 66% | without affecting body weight | predominantly localized to the tumors | substantially localized in endogenous TM4SF5-expressing tumors
